# ± gives the uncertainty stated by the source.
# Experiment: protein stability index of a GFP-peptide fusion (yeast GPS) (PSI 1-4); higher = more stable; sorted into four equal gates, so the index is relative within each strain
# Procedure, shortened: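 The protein stability index combines read frequencies across sorting gates, each weighted by its gate number and then summed. To obtain those frequencies, a pooled yeast library of GFP fusions to tiled 17-residue yeast protein peptides, on a plasmid also expressing Cherry, was grown to mid-log phase in leucine-free medium. The cells were sorted into four equal gates by GFP/Cherry ratio before plasmid amplification by PCR and Illumina sequencing.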
Sequence,protein stability index (doa10∆),protein stability index (pdr5∆),protein stability index (san1∆),protein stability index (ubr1∆)
TTDDKSMDTKKKHKQKK [BRN1],3.21 ± 0.092,3.32 ± 0.09,3.51 ± 0.068,3.27 ± 0.054
ADEPVKASLLLHVLVAH [FAS2],1.85 ± 0.043,1.59 ± 0.035,1.3 ± 0.059,1.43 ± 0.028
DEKNKNNNEDNENNNNS [MED2],3.11 ± 0.084,3.39 ± 0.069,3.17 ± 0.062,3.28 ± 0.064
LNSYWVNQDSTYKYFEV [RPL15A],3.23 ± 0.061,3.27 ± 0.076,3.32 ± 0.041,3.2 ± 0.058
RAFLIEEQKIVKKVVKE [RPL34A],3.25 ± 0.099,3.02 ± 0.13,2.99 ± 0.12,3.26 ± 0.091
TDLIREKTMMTFGKPEE [YCS4],3.14 ± 0.053,3.31 ± 0.062,3.19 ± 0.041,3.11 ± 0.05
DSSGVNDLHHSEKKYAE [RPN3],2.69 ± 0.11,3.24 ± 0.16,2.88 ± 0.21,–
ANTGGGLFGANSNSNSG [YGL172W/NUP49],2.11 ± 0.11,2.74 ± 0.077,1.76 ± 0.17,2.22 ± 0.14
LKTLVQGPRSYFLDVKC [RPS27A],3.08 ± 0.076,3.21 ± 0.13,2.72 ± 0.12,2.99 ± 0.075
YSPNTLGHPDNYIPGNP [COB],2.52 ± 0.11,2.27 ± 0.088,2.9 ± 0.064,2.43 ± 0.047
DTLNETNLKMKRKWSYV [RRP43],2.24 ± 0.061,2.56 ± 0.04,2.98 ± 0.1,2.61 ± 0.073
PSKVSKIDSHVVLSFSG [PRE6],1.71 ± 0.062,1.77 ± 0.058,1.74 ± 0.12,1.87 ± 0.057
MANKEWRVREASTSALL [ECM29],–,–,–,2.26 ± 0.2
TTDKLRSMVRKWQTLIE [RPS1A],2.72 ± 0.17,2.46 ± 0.15,–,–
NLQTFTHEQWSNIQRNV [SRP72],2.86 ± 0.065,3 ± 0.064,3.01 ± 0.058,2.93 ± 0.046
DDKVSVVEKEKIESLAG [UBP6],3.31 ± 0.2,2.84 ± 0.24,2.89 ± 0.17,3.37 ± 0.14
FQYVIDESSGTSRIDEE [SMC4],2.93 ± 0.082,2.86 ± 0.09,2.05 ± 0.15,3.23 ± 0.13
AAIKDLDDFGEEELFEV [RRP43],2.46 ± 0.11,2.49 ± 0.14,2.17 ± 0.13,–
DPEEVEQQVAEEATTEE [RPS0A],3.3 ± 0.086,3.33 ± 0.097,3.1 ± 0.077,3.56 ± 0.077
QESFVPNSERSGTPTLK [YOR098C/NUP1],3.03 ± 0.16,2.25 ± 0.15,–,1.79 ± 0.19
SKEVRGSKIRVMWGKVT [RPL33A],2.68 ± 0.1,2.35 ± 0.12,2.4 ± 0.092,2.6 ± 0.067
NEVCLEKENRFEIVDRE [SMC4],2.62 ± 0.089,2.92 ± 0.11,3.1 ± 0.1,3.3 ± 0.082
SPSYSPTSPNYSPTSPS [RPO21],2.85 ± 0.039,2.94 ± 0.04,2.97 ± 0.033,3.024 ± 0.026
LVIKSGKYTLGYKSTVK [RPL30],2.75 ± 0.079,2.96 ± 0.061,2.5 ± 0.079,2.87 ± 0.05
NAAPANVTGGKAANFIQ [SWI1],2.52 ± 0.05,1.86 ± 0.045,2.48 ± 0.086,2.46 ± 0.049
NNVNEYSYTTIVLSDQT [YJL039C/NUP192],3.11 ± 0.059,3.14 ± 0.066,3.09 ± 0.045,2.93 ± 0.044

Sequence,protein stability index (doa10∆),protein stability index (pdr5∆),protein stability index (san1∆),protein stability index (ubr1∆)
TELLDYATKLSKFTKIP [MED4],–,2.71 ± 0.23,2.98 ± 0.16,–
IGAAELNENARELEQIK [SNF12],3.18 ± 0.081,3.18 ± 0.067,2.84 ± 0.12,3.33 ± 0.05
VFLSNLVETCLNDLVES [BRR2],1.41 ± 0.05,1.98 ± 0.04,1.57 ± 0.11,1.89 ± 0.039
NVTSFMPFWKFFMKNFP [SRB8],1.47 ± 0.053,1.63 ± 0.046,1.43 ± 0.068,1.35 ± 0.041
LGKTIQTISLLTYLYEM [SNF2],1.72 ± 0.093,2.5 ± 0.087,2.47 ± 0.081,2.38 ± 0.076
QAIKEASYVNIPVIALT [RPS0A],2.07 ± 0.068,2 ± 0.061,2.15 ± 0.12,1.78 ± 0.057
NNSNSNNNSSNEKEQLS [SEC65],2.77 ± 0.041,2.72 ± 0.041,2.79 ± 0.031,2.76 ± 0.035
EEPAKEEAPAPTPAASA [FAS2],2.75 ± 0.14,2.82 ± 0.12,2.69 ± 0.26,2.98 ± 0.14
GVEEVEGEYELTEAVED [RPL5],3.36 ± 0.11,3.45 ± 0.13,3.24 ± 0.14,3.24 ± 0.2
GTHNMYKEIRDVSRVAA [RPL20A],1.96 ± 0.089,2.22 ± 0.14,2.03 ± 0.1,2.29 ± 0.083
ERKTLERQQENLLIQRL [SWI3],3.07 ± 0.09,3.28 ± 0.087,3.12 ± 0.078,3.09 ± 0.067
GSPKSATSKTSEMLAKY [CDC53],2.67 ± 0.075,2.48 ± 0.072,1.83 ± 0.1,3 ± 0.045
DQNNKKMVGLRGFNNQI [SNF2],3.35 ± 0.065,3.22 ± 0.072,3.2 ± 0.072,3.37 ± 0.044
TKRVEKPQLKFKSPIDN [RRP6],2.88 ± 0.052,3.03 ± 0.061,3.02 ± 0.039,3.137 ± 0.03
QRDFRKHGAVHMSTYLK [RPL21B],2.65 ± 0.048,2.42 ± 0.042,2.48 ± 0.054,2.8 ± 0.038
KSTPEGTLWAHVLKTVD [SNU114],2.1 ± 0.058,1.93 ± 0.048,2.43 ± 0.072,2.27 ± 0.038
STISAREIQTAVRLILP [HTB1],2.13 ± 0.11,2.31 ± 0.12,2.52 ± 0.087,2.38 ± 0.074
EHKTPELISFKERTKSL [YIL149C/MLP2],2.85 ± 0.066,2.95 ± 0.076,2.93 ± 0.076,3.22 ± 0.079
QRIIADLSADKPTSPFI [SRB8],2.78 ± 0.041,2.81 ± 0.054,2.82 ± 0.043,2.94 ± 0.048
WRQFGNRMQISPDQMRN [GRR1],3.07 ± 0.12,3.14 ± 0.12,2.89 ± 0.11,2.75 ± 0.11
QRDAEISQPKSMSGRIS [BRR2],3.22 ± 0.058,3.3 ± 0.055,3.23 ± 0.062,3.18 ± 0.051
LCAGANNPKIQTKDSVK [IRR1],3.29 ± 0.1,2.99 ± 0.1,3.13 ± 0.11,3.15 ± 0.057
FGTGQSTFGFNNSAPNN [YJL041W/NSP1],3.17 ± 0.046,3.29 ± 0.051,3.1 ± 0.04,3.3 ± 0.036
MNIKPVQKQTRAGQRTR [RPS2],2.67 ± 0.1,2.81 ± 0.11,1.92 ± 0.089,2.58 ± 0.073
YVDPETTYTYQQPNPLQ [ROX3],2.33 ± 0.087,2.31 ± 0.099,2.02 ± 0.12,2.86 ± 0.12
